Source: the supplement of paper PMC9170038

Test system: MS2 coat protein
Test: apparent KD of MS2 coat protein; designed switch direction (-1 OFF switch, 1 ON switch): -1; higher = weaker reporter binding
Procedure, shortened: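 Designed RNA switches with common flanks were made on Illumina chips by stalled E. coli RNA polymerase. Titration with SNAP-549-labelled MS2 coat protein doubled from 0.7 or 1.5 nM up to 3 µM. Apparent KD is each design's median over clusters after curve-fitting normalised fluorescence.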

[1] = input ligand: microRNA oligo, concentration not stated
[2] = Eterna round: R95, input ligand: FMN 200 uM
[3] = Eterna round: R95, input ligand: microRNA oligo, concentration not stated
[4] = Eterna round: R95, input ligand: none

For “CAAAGAUAAGGAUAUUGAAGGUUCGACAUGAGGAUCACCCAUGUUAUGUUGGAAAAGGGACAAGAAGGUAUGAAAA [salish99_ex5_r4_214] (Eterna round: R97, puzzle: Exclusion 5)”, the “apparent KD of MS2 coat protein” value (input ligand: FMN 200 uM) was 31.5 nM and the “apparent KD of MS2 coat protein” value (input ligand: none) was 39.3 nM.

“CAAAGUUGGUAAGGAUAUCCCACAUUAUUCUGACCCGUGCAAGCUACAUGAGGAUCACCCAUGUGGGAGAAGGUGCGUUAAAGU [Design 2] (Eterna round: R96, puzzle: Exclusion NG 2)” was tested, and the “apparent KD of MS2 coat protein” value (input ligand: FMN 200 uM) was 261 nM, the “apparent KD of MS2 coat protein” value [1] was 164 nM and the “apparent KD of MS2 coat protein” value (input ligand: none) was 196 nM.

“CAACGUGAGCAGGAUAUACAGAGGGAGACCUGGGUAGAAGGGCUCACAUGAGGAUCACCCAUGUUAGCCAAAGA [Eternabot (Original) Solution 47] (Eterna round: R97, puzzle: Exclusion 6)” was tested, and the “apparent KD of MS2 coat protein” value (input ligand: FMN 200 uM) was 33.3 nM and the “apparent KD of MS2 coat protein” value (input ligand: none) was 18.8 nM.

With “CAAGAUUACUGAGGAUAUCCUAGUUUAUUUCAGGGAGAAGGCGGACUCAACAUGAGGAUCACCCAUGUAAGACGGGUACUAGAG [Ex NG1 #16] (Eterna round: R96, puzzle: Exclusion NG 1)” the “apparent KD of MS2 coat protein” value (input ligand: FMN 200 uM) was 94.7 nM, the “apparent KD of MS2 coat protein” value [1] was 71.1 nM and the “apparent KD of MS2 coat protein” value (input ligand: none) was 78.4 nM.

In the case of “CAAUAACAAGCAGGAUCCUACAUGAGGAUCACCCAUGUGCUCGUCUUAUAAAGUACUAUCACGAAAGUGAUAGUACA [Mat - Sensor v3 - turn-off var 1 - Eli Mod - D71] (puzzle: Sensor v3, turn-off variant 1)”, the “apparent KD of MS2 coat protein” value [2] was 190 nM, the “apparent KD of MS2 coat protein” value [3] was 58.6 nM and the “apparent KD of MS2 coat protein” value [4] was 396 nM.

For “CAAUGCGGAGGAUAUACAUUUAUGACUGCCACAGUACCGAGACAUGAGGAUCACCCAUGUAGAAGGCCGAUUAA [EX2 B.9] (Eterna round: R97, puzzle: Exclusion 2)”, the “apparent KD of MS2 coat protein” value (input ligand: FMN 200 uM) was 20.4 nM and the “apparent KD of MS2 coat protein” value (input ligand: none) was 16.7 nM.

With “CAAUUCCGAGGAUAUACAUGAGGAUCACCCAUGUCGGGCCUCAGCGUUUAGCGCGUAAGUAGAAGGUGGGUUUC [JL Riri mod 6] (puzzle: Exclusion 3)” the “apparent KD of MS2 coat protein” value [3] was 29.5 nM.

In the case of “CAAUUGGGAGGAUAUACAUGAGGAUCACCCAUGUCGAUCCCAGGUAAGUUAAUACUUCGUAGAAGGCCUAUCUC [Eternabot (L2) Solution 16] (Eterna round: R97, puzzle: Exclusion 3)”, the “apparent KD of MS2 coat protein” value (input ligand: FMN 200 uM) was 20.6 nM and the “apparent KD of MS2 coat protein” value (input ligand: none) was 17.6 nM.

For “CACAAGCUUUUUUGAUGCAUUUUAGUUGGUGUGCUUUUUACAUGAGGAUCACCCAUGUUUAUGAAGCUCGAUCUUUU [JR_SV3TOV2_Sub080] (puzzle: Sensor v3, turn-off variant 2)”, the “apparent KD of MS2 coat protein” value [2] was 14 nM, the “apparent KD of MS2 coat protein” value [3] was 15 nM and the “apparent KD of MS2 coat protein” value [4] was 12.8 nM.

In the case of “CACCGUAACAGAGGAUAUGAUACAUGAGGAUCACCCAUGUAAUAAAUGAGAAUUUCGAAUGUACCUCAGAAGGCUGAAACCGGC [Ostricism 81 - Jieux - Exclusion NG 2] (Eterna round: R96, puzzle: Exclusion NG 2)”, the “apparent KD of MS2 coat protein” value (input ligand: FMN 200 uM) was 115 nM, the “apparent KD of MS2 coat protein” value [1] was 38.5 nM and the “apparent KD of MS2 coat protein” value (input ligand: none) was 48 nM.

For “CACCGUAACUGAGGAUAUCAAACAUGAGGAUCACCCAUGUAAUAAAUGAGAAUUUCGAAUGUACCUGAGAAGGCAGAAACCGGC [Ostricism 84 - Jieux - Exclusion NG 2] (Eterna round: R96, puzzle: Exclusion NG 2)”, the “apparent KD of MS2 coat protein” value [1] was 25.1 nM.

For “CACCGUUAAGGAGGAUAUCGUACAUGAGGAUCACCCAUGUAAUAAAUGAGAAUUUCGGAUGUAUGCGAGAAGGCCUAAAUCGGC [Ostracism 44 - Jieux - Exclusion NG 2] (Eterna round: R96, puzzle: Exclusion NG 2)”, the “apparent KD of MS2 coat protein” value [1] was 34.7 nM.

For “CACCGUUACACAGGAUAUCUUACAUGAGGAUCACCCAUGUAAUAAAUGAGAAUUUCGAAUGUAUUAGAGAAGGGUGGAAUCGGC [Ostracism 67 - Jieux - Exclusion NG 2] (Eterna round: R96, puzzle: Exclusion NG 2)”, the “apparent KD of MS2 coat protein” value [1] was 29.8 nM.

In the case of “CACCGUUACAGAGGAUAUGUCACAUGAGGAUCACCCAUGUAAUAAAUGAGAAUUUCGAAUGUAACACAGAAGGCUGGAAUCGGC [Ostricism 76 - Jieux - Exclusion NG 2] (Eterna round: R96, puzzle: Exclusion NG 2)”, the “apparent KD of MS2 coat protein” value (input ligand: FMN 200 uM) was 37.1 nM, the “apparent KD of MS2 coat protein” value [1] was 18.1 nM and the “apparent KD of MS2 coat protein” value (input ligand: none) was 26.5 nM.

“CACCGUUACUGAGGAUAUGGUACAUGAGGAUCACCCAUGUAAUAAAUGAGAAUUUCGGAUGUAUUCCAGAAGGCAGAAAUCGGC [Ostricism 63 - Jieux - Exclusion NG 2] (Eterna round: R96, puzzle: Exclusion NG 2)” was tested, and the “apparent KD of MS2 coat protein” value (input ligand: FMN 200 uM) was 65.2 nM, the “apparent KD of MS2 coat protein” value [1] was 40.5 nM and the “apparent KD of MS2 coat protein” value (input ligand: none) was 60.3 nM.

With “CACCGUUAGAGAGGAUAUCGUACAUGAGGAUCACCCAUGUAAUAAAUGAGAAUUUCGGAUGUAUGCGAGAAGGCUCAAAUCGGC [Ostracism 39 - Jieux - Exclusion NG 2] (Eterna round: R96, puzzle: Exclusion NG 2)” the “apparent KD of MS2 coat protein” value (input ligand: FMN 200 uM) was 42.1 nM, the “apparent KD of MS2 coat protein” value [1] was 42.5 nM and the “apparent KD of MS2 coat protein” value (input ligand: none) was 60 nM.

For “CACCGUUAGUGAGGAUAUCUUACAUGAGGAUCACCCAUGUAAUAAAUGAGAAUUUCGGAUGUAUGAGAGAAGGCACAAAUCGGC [Ostricism 53 - Jieux - Exclusion NG 2] (Eterna round: R96, puzzle: Exclusion NG 2)”, the “apparent KD of MS2 coat protein” value (input ligand: FMN 200 uM) was 21.2 nM, the “apparent KD of MS2 coat protein” value [1] was 18.5 nM and the “apparent KD of MS2 coat protein” value (input ligand: none) was 22.7 nM.

With “CACCGUUAUGGAGGAUAUCGUACAUGAGGAUCACCCAUGUAAUAAAUGAGAAUUUCGGAUGUAUGCGAGAAGGCCAAAAUCGGC [Ostracism 43 - Jieux - Exclusion NG 2] (Eterna round: R96, puzzle: Exclusion NG 2)” the “apparent KD of MS2 coat protein” value (input ligand: FMN 200 uM) was 46.6 nM, the “apparent KD of MS2 coat protein” value [1] was 26.9 nM and the “apparent KD of MS2 coat protein” value (input ligand: none) was 43.5 nM.

“CACCUGAAAGCAGGAUAUCUUACAUGAGGAUCACCCAUGUAAUAAAUGAGAAUUUCGAAUGUAAUAGAGAAGGGCUGAAAAGGC [Ostracism 86 - Jieux - Exclusion NG 2] (Eterna round: R96, puzzle: Exclusion NG 2)” was tested, and the “apparent KD of MS2 coat protein” value (input ligand: FMN 200 uM) was 47 nM, the “apparent KD of MS2 coat protein” value [1] was 37.7 nM and the “apparent KD of MS2 coat protein” value (input ligand: none) was 40.3 nM.

With “CACCUGAAGAGAGGAUAUCAUACAUGAGGAUCACCCAUGUAAUAAAUGAGAAUUUCGAAUGUAAUUGAGAAGGCUCGAUAAGGC [Ostricism 92 - Jieux - Exclusion NG 2] (Eterna round: R96, puzzle: Exclusion NG 2)” the “apparent KD of MS2 coat protein” value (input ligand: FMN 200 uM) was 109 nM, the “apparent KD of MS2 coat protein” value [1] was 54.9 nM and the “apparent KD of MS2 coat protein” value (input ligand: none) was 59 nM.

In the case of “CACGAACAUGAGGAUCACCCAUGUAAGGAUAUGGCCAACGACUUAAACUAAAGGUUGGCCAGAAGGUGCGGGUG [Eternabot (L2) Solution 61] (Eterna round: R97, puzzle: Exclusion 1)”, the “apparent KD of MS2 coat protein” value (input ligand: FMN 200 uM) was 52.5 nM and the “apparent KD of MS2 coat protein” value (input ligand: none) was 286 nM.

For “CACGGGUAAGGAUAUACAAGUGAGAAAGGUAUGUGCAAAUAACAUGAGGAUCACCCAUGUAGAAGGUACGCCGG [Cearxeen] (puzzle: Exclusion 2)”, the “apparent KD of MS2 coat protein” value [2] was 27.1 nM, the “apparent KD of MS2 coat protein” value [3] was 16.9 nM and the “apparent KD of MS2 coat protein” value [4] was 14.9 nM.

For “CACGUGUAAGGAUAUGACAAUGGUAUCUUCGGAUACCAUUGUCAGAAGGUACAUGAGGAUCACCCAUGUAACAC [Ex4-3: 15] (puzzle: Exclusion 4)”, the “apparent KD of MS2 coat protein” value [3] was 17.2 nM.

With “CACUCACAUGAGGAUCACCCAUGUCAGGAUAUCUCAGUGCAUCCACACGGACGCAUCAAGAGAAGGGACAAAAC [Vinxlusion 1 - Jieux - Exclusion 1] (Eterna round: R97, puzzle: Exclusion 1)” the “apparent KD of MS2 coat protein” value (input ligand: FMN 200 uM) was 40.2 nM and the “apparent KD of MS2 coat protein” value (input ligand: none) was 36.6 nM.

In the case of “CACUUACAUGAGGAUCACCCAUGUGAGGAUAUCGUGACCAGACGAGAAGUCUAUGUCACGAGAAGGCACGUGGG [Exclusion 1 (Mod 3.1 solution 97 by Eternabot)] (Eterna round: R97, puzzle: Exclusion 1)”, the “apparent KD of MS2 coat protein” value (input ligand: FMN 200 uM) was 20.8 nM and the “apparent KD of MS2 coat protein” value (input ligand: none) was 811 nM.

“CAGAAUUGAGGAUAUGAUCAAUUUAACAUGAGGAUCACCCAUGUAUGGGAAUGAUUCUGAUCAGAAGGCGAUUCUA [Exclusion 5: 1:b] (puzzle: Exclusion 5)” was tested, and the “apparent KD of MS2 coat protein” value [2] was 289 nM, the “apparent KD of MS2 coat protein” value [3] was 408 nM and the “apparent KD of MS2 coat protein” value [4] was 79 nM.

In the case of “CAGAGCAGACGGAGAUCCAACAUGAGGAUCACCCAUGUCUCAAAAGCUUUUUGCUUGUCUUAUCCUCCUCUGUUCAC [Esquitian 2] (Eterna round: R97, puzzle: Sensor, turn-off variant 1)”, the “apparent KD of MS2 coat protein” value (input ligand: FMN 200 uM) was 18.3 nM and the “apparent KD of MS2 coat protein” value (input ligand: none) was 17.4 nM.

In the case of “CAGAGCAGAGGAUAUACAUGAGGAUCACCCAUGUGAUCAUGCUACGGGACGUUACAUUGUAGAAGGCUGCUUUC [Eternabot (L2) Solution 58] (Eterna round: R97, puzzle: Exclusion 3)”, the “apparent KD of MS2 coat protein” value (input ligand: FMN 200 uM) was 283 nM and the “apparent KD of MS2 coat protein” value (input ligand: none) was 31.1 nM.

With “CAGCACUCAGGAUAUACAUGAGGAUCACCCAUGUGUGAACAAGUGAGUGAUUUCCCAUGUAGAAGGGAGAGAUU [Exclusion 3 S1] (Eterna round: R97, puzzle: Exclusion 3)” the “apparent KD of MS2 coat protein” value (input ligand: FMN 200 uM) was 183 nM and the “apparent KD of MS2 coat protein” value (input ligand: none) was 98.2 nM.

“CAGCGGUGAGGAUAUACGUAGGUACAGAUCUGUGUGUUCCUACAUGAGGAUCACCCAUGUAGAAGGCAUGGCUG [LRO-Excl2-11] (puzzle: Exclusion 2)” was tested, and the “apparent KD of MS2 coat protein” value [3] was 37.1 nM.

“CAGCGGUGAGGAUAUUCAAGGUGGGACAUGAGGAUCACCCAUGUACAUAGCUGUACGACCGGAGAAGGCGUGGCAU [Eternabot (L1) Solution 67] (Eterna round: R97, puzzle: Exclusion 5)” was tested, and the “apparent KD of MS2 coat protein” value (input ligand: FMN 200 uM) was 86.5 nM and the “apparent KD of MS2 coat protein” value (input ligand: none) was 76.3 nM.

In the case of “CAGCUGAAAGUCAGGAUAUCUAGAGCUUCGGCUCUAGAGAAGGGACAUGAGGAUCACCCAUGUCACUCCAGCUG [BmEx4/3-A1] (Eterna round: R97, puzzle: Brourd's mod of Exclusion 4)”, the “apparent KD of MS2 coat protein” value (input ligand: FMN 200 uM) was 18.9 nM and the “apparent KD of MS2 coat protein” value (input ligand: none) was 18.2 nM.
